The record followed here is US20260274985A1 (MYTHIC THERAPEUTICS, published 2026).

Where two headings read alike, the source gives them in different places.

Assay [1] has as its target T1, Human TROP2 Protein, His Tag (Acro Biosystems) (human, UniProt P09758 27-274).
T1 construct: not shown: His tag
T1 sequence (looked up): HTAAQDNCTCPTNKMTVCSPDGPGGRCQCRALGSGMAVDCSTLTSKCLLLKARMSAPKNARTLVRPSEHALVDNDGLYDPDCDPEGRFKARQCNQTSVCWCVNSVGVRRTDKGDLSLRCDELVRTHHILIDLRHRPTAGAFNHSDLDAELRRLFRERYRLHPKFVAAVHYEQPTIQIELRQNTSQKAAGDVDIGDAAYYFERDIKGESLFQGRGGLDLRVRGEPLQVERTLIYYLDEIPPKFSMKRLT
Nature of the assay: BLI (Octet) [1/2].

The target in assay [2] is T2, Human TROP2 Protein, His Tag (Acro Biosystems) (human, UniProt P09758 27-274).
T2 construct: Soluble analyte of the Octet assay; also called TACSTD2; not shown: His tag
T2 sequence (looked up): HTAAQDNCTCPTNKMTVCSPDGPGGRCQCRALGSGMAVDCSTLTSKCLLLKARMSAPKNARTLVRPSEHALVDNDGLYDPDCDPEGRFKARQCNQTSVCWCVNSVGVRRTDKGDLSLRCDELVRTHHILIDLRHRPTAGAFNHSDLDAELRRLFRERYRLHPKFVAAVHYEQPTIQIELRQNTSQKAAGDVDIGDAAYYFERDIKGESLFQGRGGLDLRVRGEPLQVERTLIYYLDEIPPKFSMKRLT
Nature of the assay: BLI (Octet) [1/2]. (BLI is a label-free optical method that tracks binding on a fibre tip over time.)

B1: MYT12328 (antibody, V domains shown)
VH: QVQLQQSGSELKKPGASVKVSCKASGYTFTNYGMNWVKQAPGQGLKWMGWINTYTGEPTHTDDHHGRFAFSLDTSVSTAYLQISSLKADDTAVYFCARGGFGSSYWYFDVWGQGSLVTVSS
VL: DIQLTQSPSSLSASVGDRVSITCKASQDVSIAVAWYQQKPGKAPKLLIYSASYRYTGVPDRFSGSGSGTDFTLTISSLQPEDFAVYYCQQHYITPLTFGAGTKVEIK
notes: sacituzumab VH 60, 64, 65 -> H
In the case of B1, in assay [1], the binding result is listed as “binds”.

B2: MYT13215 (antibody, V domains shown)
VH: QVQLQQSGSELKKPGASVKVSCKASGYTFTNYGMNWVKQAPGQGLKWMGWINTYTGEPTYTDDFKHRFAFSLDTSVSTAYLQISSLKADDTAVYFCARGGFGSSYWYFDVWGQGSLVTVSS
VL: DIQLTQSPSSLSASVGDRVSITCKASQDVSIAVAWYQQKPGKAPKLLIYSASYRYTGVPDRFSGSGSGTDFTLTISSLQPEDFAVYYCQQAYITPLTFGAGTKVEIK
notes: Sacituzumab HC-LC pairing variant; IgG
For B2, the binding result in assay [2] was “binds”.

B3: MYT13207 (antibody, V domains shown)
VH: QVQLQQSGSELKKPGASVKVSCKASGYTFTNYGMNWVKQAPGQGLKWMGWINTYTGEPTYTDDFKHRFAFSLDTSVSTAYLQISSLKADDTAVYFCARGGFGSSYWYFDVWGQGSLVTVSS
VL: DIQLTQSPSSLSASVGDRVSITCKASQDVSIAVAWYQQKPGKAPKLLIYSASYRYTGVPDRFSGSGSGTDFTLTISSLQPEDFAVYYCHQHYITPLTFGAGTKVEIK
notes: as for B2
In the case of B3, the binding result in assay [2] is “binds”.

B4: MYT13205 (antibody, V domains shown)
VH: QVQLQQSGSELKKPGASVKVSCKASGYTFTNYGMNWVKQAPGQGLKWMGWINTYTGEPTYTDDHKGRFAFSLDTSVSTAYLQISSLKADDTAVYFCARGGFGSSYWYFDVWGQGSLVTVSS
VL: DIQLTQSPSSLSASVGDRVSITCKASQDVSIAVAWYQQKPGKAPKLLIYSASYRYTGVPDRFSGSGSGTDFTLTISSLQPEDFAVYYCHQHYITPLTFGAGTKVEIK
notes: as for B2
As to B4, the binding result in assay [2] is given as “binds”.

B5: MYT12339 (antibody, V domains shown)
VH: QVQLQQSGSELKKPGASVKVSCKASGYTFTNYGMNWVKQAPGQGLKWMGWINTYTGEPTYTDDFKGRFAFSLDTSVSTAYLQISSLKADDTAVYFCARGGFGSSYWYFDVWGQGSLVTVSS
VL: DIQLTQSPSSLSASVGDRVSITCKASQDVHIAVAWYQQKPGKAPKLLIYSASYRYTGVPDRFSGSGSGTDFTLTISSLQPEDFAVYYCQQHYHTPLTFGAGTKVEIK
notes: sacituzumab VL 30, 93 -> H
In the case of B5, the binding result in assay [1] was “binds”.

B6: MYT13204 (antibody, V domains shown)
VH: QVQLQQSGSELKKPGASVKVSCKASGYTFTNYGMNWVKQAPGQGLKWMGWINTYTGEPTYTDHFKGRFAFSLDTSVSTAYLQISSLKADDTAVYFCARGGFGSSYWYFDVWGQGSLVTVSS
VL: DIQLTQSPSSLSASVGDRVSITCKASQDVSIAVAWYQQKPGKAPKLLIYSASYRYTGVPDRFSGSGSGTDFTLTISSLQPEDFAVYYCHQHYITPLTFGAGTKVEIK
notes: as for B2
B6: the binding result in assay [2] is listed as “binds”.

B7: MYT13211 (antibody, V domains shown)
VH: QVQLQQSGSELKKPGASVKVSCKASGYTFTNYGMNWVKQAPGQGLKWMGWINTYTGEPTYTHDFKGRFAFSLDTSVSTAYLQISSLKADDTAVYFCARGGFGSSYWYFDVWGQGSLVTVSS
VL: DIQLTQSPSSLSASVGDRVSITCKASQDVSIAVAWYQQKPGKAPKLLIYSASYRYTGVPDRFSGSGSGTDFTLTISSLQPEDFAVYYCQQAYITPLTFGAGTKVEIK
notes: as for B2
For the molecule B7, the binding result in assay [2] is recorded as “binds”.

B8: MYT12334 (antibody, V domains shown)
VH: QVQLQQSGSELKKPGASVKVSCKASGYTFTNYGMNWVKQAPGQGLKWMGWINTYTGEPTYTDDFKGRFAFSLDTSVSTAYLQISSLKADDTAVYFCARGGFGSSYWYFDVWGQGSLVTVSS
VL: DIQLTQSPSSLSASVGDRVSITCKASQDVHIAVAWYQQKPGKAPKLLIYSAHYRYTGVPDRFSGSGSGTDFTLTISSLQPEDFAVYYCQQHYITPLTFGAGTKVEIK
notes: sacituzumab VL 30, 52 -> H
Turning to B8, the binding result in assay [1] is given as “binds”.

B9: MYT12341 (antibody, V domains shown)
VH: QVQLQQSGSELKKPGASVKVSCKASGYTFTNYGMNWVKQAPGQGLKWMGWINTYTGEPTYTDDFKGRFAFSLDTSVSTAYLQISSLKADDTAVYFCARGGFGSSYWYFDVWGQGSLVTVSS
VL: DIQLTQSPSSLSASVGDRVSITCKASQDVSIAHAWYQQKPGKAPKLLIYSAHYRYTGVPDRFSGSGSGTDFTLTISSLQPEDFAVYYCQQHYITPLTFGAGTKVEIK
notes: sacituzumab VL 33, 52 -> H
On to B9, for which the binding result in assay [1] is recorded as “binds”.

B10: MYT12336 (antibody, V domains shown)
VH: QVQLQQSGSELKKPGASVKVSCKASGYTFTNYGMNWVKQAPGQGLKWMGWINTYTGEPTYTDDFKGRFAFSLDTSVSTAYLQISSLKADDTAVYFCARGGFGSSYWYFDVWGQGSLVTVSS
VL: DIQLTQSPSSLSASVGDRVSITCKASQDVHIAVAWYQQKPGKAPKLLIYSASYRYTGVPDRFSGSGSGTDFTLTISSLQPEDFAVYYCHQHYITPLTFGAGTKVEIK
notes: sacituzumab VL 30, 89 -> H
Consider B10, for which the binding result in assay [1] was “binds”.

B11: MYT13206 (antibody, V domains shown)
VH: QVQLQQSGSELKKPGASVKVSCKASGYTFTNYGMNWVKQAPGQGLKWMGWINTYTGEPTYTDDFHGRFAFSLDTSVSTAYLQISSLKADDTAVYFCARGGFGSSYWYFDVWGQGSLVTVSS
VL: DIQLTQSPSSLSASVGDRVSITCKASQDVSIAVAWYQQKPGKAPKLLIYSASYRYTGVPDRFSGSGSGTDFTLTISSLQPEDFAVYYCHQHYITPLTFGAGTKVEIK
notes: as for B2
Consider B11, for which the binding result in assay [2] was “binds”.

B12: MYT12332 (antibody, V domains shown)
VH: QVQLQQSGSELKKPGASVKVSCKASGYTFTNYGMNWVKQAPGQGLKWMGWINTYTGEPTYTDDFKGRFAFSLDTSVSTAYLQISSLKADDTAVYFCARGGFGSSYWYFDVWGQGSLVTVSS
VL: DIQLTQSPSSLSASVGDRVSITCKASQDVHIAHAWYQQKPGKAPKLLIYSASYRYTGVPDRFSGSGSGTDFTLTISSLQPEDFAVYYCQQHYITPLTFGAGTKVEIK
notes: sacituzumab VL 30, 33 -> H
As to B12, in assay [1], the binding result is recorded as “binds”.

B13: MYT13213 (antibody, V domains shown)
VH: QVQLQQSGSELKKPGASVKVSCKASGYTFTNYGMNWVKQAPGQGLKWMGWINTYTGEPTYTDDHKGRFAFSLDTSVSTAYLQISSLKADDTAVYFCARGGFGSSYWYFDVWGQGSLVTVSS
VL: DIQLTQSPSSLSASVGDRVSITCKASQDVSIAVAWYQQKPGKAPKLLIYSASYRYTGVPDRFSGSGSGTDFTLTISSLQPEDFAVYYCQQAYITPLTFGAGTKVEIK
notes: as for B2
Consider B13, for which, in assay [2], the binding result was “binds”.

B14: MYT12333 (antibody, V domains shown)
VH: QVQLQQSGSELKKPGASVKVSCKASGYTFTNYGMNWVKQAPGQGLKWMGWINTYTGEPTYTDDFKGRFAFSLDTSVSTAYLQISSLKADDTAVYFCARGGFGSSYWYFDVWGQGSLVTVSS
VL: DIQLTQSPSSLSASVGDRVSITCKASQDVHIAVAWYQQKPGKAPKLLIYSHSYRYTGVPDRFSGSGSGTDFTLTISSLQPEDFAVYYCQQHYITPLTFGAGTKVEIK
notes: sacituzumab VL 30, 51 -> H
Consider B14, for which, in assay [1], the binding result is “binds”.

B15: MYT13214 (antibody, V domains shown)
VH: QVQLQQSGSELKKPGASVKVSCKASGYTFTNYGMNWVKQAPGQGLKWMGWINTYTGEPTYTDDFHGRFAFSLDTSVSTAYLQISSLKADDTAVYFCARGGFGSSYWYFDVWGQGSLVTVSS
VL: DIQLTQSPSSLSASVGDRVSITCKASQDVSIAVAWYQQKPGKAPKLLIYSASYRYTGVPDRFSGSGSGTDFTLTISSLQPEDFAVYYCQQAYITPLTFGAGTKVEIK
notes: as for B2
In the case of B15, the binding result in assay [2] is given as “binds”.

B16: MYT13224 (antibody, V domains shown)
VH: QVQLQQSGSELKKPGASVKVSCKASGYTFTNHGMNWVKQAPGQGLKWMGWINTYTGEPTYTDDFKGRFAFSLDTSVSTAYLQISSLKADDTAVYFCARGGFGSSYWYFDVWGQGSLVTVSS
VL: DIQLTQSPSSLSASVGDRVSITCKASQDVSIAVAWYQQKPGKAPKLLIYSASYRYTGVPDRFSGSGSGTDFTLTISSLQPEDFAVYYCQQHYHTPLTFGAGTKVEIK
notes: as for B2
For the molecule B16, in assay [2], the binding result is recorded as “binds”.

B17: MYT12340 (antibody, V domains shown)
VH: QVQLQQSGSELKKPGASVKVSCKASGYTFTNYGMNWVKQAPGQGLKWMGWINTYTGEPTYTDDFKGRFAFSLDTSVSTAYLQISSLKADDTAVYFCARGGFGSSYWYFDVWGQGSLVTVSS
VL: DIQLTQSPSSLSASVGDRVSITCKASQDVSIAHAWYQQKPGKAPKLLIYSHSYRYTGVPDRFSGSGSGTDFTLTISSLQPEDFAVYYCQQHYITPLTFGAGTKVEIK
notes: sacituzumab VL 33, 51 -> H
In the case of B17, the binding result in assay [1] is recorded as “binds”.

B18: MYT13212 (antibody, V domains shown)
VH: QVQLQQSGSELKKPGASVKVSCKASGYTFTNYGMNWVKQAPGQGLKWMGWINTYTGEPTYTDHFKGRFAFSLDTSVSTAYLQISSLKADDTAVYFCARGGFGSSYWYFDVWGQGSLVTVSS
VL: DIQLTQSPSSLSASVGDRVSITCKASQDVSIAVAWYQQKPGKAPKLLIYSASYRYTGVPDRFSGSGSGTDFTLTISSLQPEDFAVYYCQQAYITPLTFGAGTKVEIK
notes: as for B2
Take B18: the binding result in assay [2] is reported as “binds”.

B19: MYT12329 (antibody, V domains shown)
VH: QVQLQQSGSELKKPGASVKVSCKASGYTFTNYGMNWVKQAPGQGLKWMGWINTYTGEPTHTDDHKHRFAFSLDTSVSTAYLQISSLKADDTAVYFCARGGFGSSYWYFDVWGQGSLVTVSS
VL: DIQLTQSPSSLSASVGDRVSITCKASQDVSIAVAWYQQKPGKAPKLLIYSASYRYTGVPDRFSGSGSGTDFTLTISSLQPEDFAVYYCQQHYITPLTFGAGTKVEIK
notes: sacituzumab VH 60, 64, 66 -> H
On to B19, for which, in assay [1], the binding result is on record as “binds”.

B20: MYT12335 (antibody, V domains shown)
VH: QVQLQQSGSELKKPGASVKVSCKASGYTFTNYGMNWVKQAPGQGLKWMGWINTYTGEPTYTDDFKGRFAFSLDTSVSTAYLQISSLKADDTAVYFCARGGFGSSYWYFDVWGQGSLVTVSS
VL: DIQLTQSPSSLSASVGDRVSITCKASQDVHIAVAWYQQKPGKAPKLLIYSASHRYTGVPDRFSGSGSGTDFTLTISSLQPEDFAVYYCQQHYITPLTFGAGTKVEIK
notes: sacituzumab VL 30, 53 -> H
Consider B20, for which the binding result in assay [1] is given as “binds”.
